Assay results as given in the Human Domainome abundance scans (Beltran et al. 2025).
± gives the uncertainty stated by the source.

B1: TGF-beta-activated kinase 1 and MAP3K7-binding protein 3, residues 12 to 50; numbered along this chain, Q8N5C8 (parent)
chain: VLHDLRQRFPEIPEGVVSQCMLQNNNNLEACCRALSQES
B2: Tumor protein 63, residues 545 to 610; numbered along this chain, Q9H3D4 (parent)
chain: TDCSIVSFLARLGCSSCLDYFTTQGLTTIYQIEHYSMDDLASLKIPEQFRHAIWKGILDHRQLHEF

Variants of: B1
Assay: abundance fitness (aPCA) (normalised: wild type 0, dead -1); higher = more abundant; growth selection in yeast, the domain comes from the species named
Details: Homo sapiens

Variant	abundance fitness
Q37R	-0.003 ± 0.034
Q37P	-0.537 ± 0.063
Q37V	-0.122 ± 0.038
Q37L	0.041 ± 0.039
Q37F	-0.384 ± 0.072
Q37S	-0.014 ± 0.041
Q37N	0.151 ± 0.1
Q37I	-0.107 ± 0.057
Q37Y	-0.345 ± 0.091
Q37K	0.107 ± 0.053
Q37H	-0.162 ± 0.073
Q37E	0.102 ± 0.035
Q37D	-0.042 ± 0.066
Q37G	0.009 ± 0.035
Q37W	-0.372 ± 0.048
Q37M	0.043 ± 0.045
Q37A	0.084 ± 0.038
Q37C	-0.129 ± 0.071
Q37T	-0.05 ± 0.047
L35P	-0.488 ± 0.081
L35W	-0.819 ± 0.089
L35M	-0.879 ± 0.15
L35H	-0.469 ± 0.12
L35T	-0.603 ± 0.089

Variant	abundance fitness
L35D	-0.784 ± 0.41
L35S	-0.745 ± 0.069
L35C	-0.6 ± 0.25
L35Q	-0.629 ± 0.25
L35F	-0.697 ± 0.17
L35R	-0.811 ± 0.071
L35E	-0.504 ± 0.13
L35K	-0.808 ± 0.13
L35V	-0.924 ± 0.1
L35A	-0.793 ± 0.058
R33T	-0.127 ± 0.056
R33V	-0.115 ± 0.051
R33F	-0.271 ± 0.067
R33C	-0.451 ± 0.093
R33P	-0.731 ± 0.089
R33K	-0.023 ± 0.058
R33S	-0.174 ± 0.045
R33G	-0.454 ± 0.048
R33E	-0.056 ± 0.058
R33D	-0.239 ± 0.1
R33Y	-0.459 ± 0.12
R33N	-0.315 ± 0.13
R33Q	-0.017 ± 0.051
R33A	0.04 ± 0.045

Variant	abundance fitness
R33H	-0.137 ± 0.064
R33W	-0.259 ± 0.053
S39W	-0.137 ± 0.072
S39Y	-0.002 ± 0.06
S39R	0.121 ± 0.05
S39T	0.249 ± 0.12
S39K	0.052 ± 0.067
S39P	-0.041 ± 0.064
S39L	-0.045 ± 0.067
S39M	-0.077 ± 0.069
S39G	0.001 ± 0.057
S39E	-0.104 ± 0.14
S39A	-0.255 ± 0.068
S39C	-0.083 ± 0.07
S39Q	0.039 ± 0.065
S39F	-0.213 ± 0.14
C32M	-0.076 ± 0.048
C32N	0.023 ± 0.15
C32V	0.176 ± 0.041
C32P	-0.664 ± 0.093
C32S	-0.226 ± 0.046
C32Q	-0.368 ± 0.095
C32Y	-0.246 ± 0.064
C32R	-0.589 ± 0.06

Variant	abundance fitness
S36C	-0.315 ± 0.099
S36H	-0.314 ± 0.078
S36I	-0.108 ± 0.11
S36K	-0.014 ± 0.062
S36E	0.166 ± 0.046
S36G	-0.194 ± 0.042
S36V	-0.365 ± 0.045
S36A	0.08 ± 0.042
S36W	-0.571 ± 0.08
S36D	-0.018 ± 0.087
S36M	-0.095 ± 0.071
S36R	-0.031 ± 0.042
S36Y	-0.489 ± 0.1
S36L	-0.186 ± 0.044
E38C	0.058 ± 0.068
E38S	-0.046 ± 0.044
E38P	-0.029 ± 0.057
E38T	-0.118 ± 0.058
E38Y	0.093 ± 0.15
E38Q	0.145 ± 0.055
E38G	-0.069 ± 0.036
E38W	0.264 ± 0.04
E38K	0.014 ± 0.046
E38D	-0.045 ± 0.078

Variant	abundance fitness
E38R	0.1 ± 0.047
E38L	0.14 ± 0.065
E38V	-0.073 ± 0.042
E38M	0.224 ± 0.061
E38H	0.11 ± 0.054
E38F	0.109 ± 0.1
A34K	-0.353 ± 0.054
A34D	-0.178 ± 0.11
A34I	-0.04 ± 0.13
A34E	-0.056 ± 0.041
A34R	-0.49 ± 0.046
A34C	-0.373 ± 0.13
A34V	-0.135 ± 0.046
A34S	-0.342 ± 0.055
A34T	-0.297 ± 0.08
A34L	-0.413 ± 0.05
A34H	-0.117 ± 0.09
A34Q	0.028 ± 0.063
A34G	-0.73 ± 0.057
A34M	-0.168 ± 0.051
A34Y	-0.328 ± 0.35
A34N	-0.819 ± 0.41
A34W	-0.398 ± 0.047

Variants of: B2
Assay: as above
Details: Homo sapiens

Variant	abundance fitness
C3N	-0.021 ± 0.033
C3D	-0.043 ± 0.029
C3G	-0.069 ± 0.018
C3F	-0.018 ± 0.063
C3Q	-0.031 ± 0.026
C3L	-0.033 ± 0.02
C3A	-0.098 ± 0.021
C3K	-0.075 ± 0.031
C3H	-0.08 ± 0.044
C3I	-0.029 ± 0.031
C3M	-0.005 ± 0.025
C3S	-0.011 ± 0.022
C3R	-0.051 ± 0.018
D2N	-0.053 ± 0.03
D2Q	-0.127 ± 0.047
D2G	-0.11 ± 0.022
D2F	-0.184 ± 0.088
D2W	-0.275 ± 0.039
D2K	-0.099 ± 0.037
D2E	-0.079 ± 0.028
D2Y	-0.182 ± 0.052
D2A	-0.147 ± 0.025
D2R	-0.202 ± 0.037
D2C	-0.19 ± 0.042

Variant	abundance fitness
D2T	-0.185 ± 0.041
D2V	-0.22 ± 0.024
D2H	-0.17 ± 0.062
D2S	-0.101 ± 0.025
D2L	-0.338 ± 0.026
D2P	-0.132 ± 0.033
T1V	-0.058 ± 0.042
T1G	-0.027 ± 0.029
T1D	-0.039 ± 0.038
T1E	-0.021 ± 0.054
T1F	-0.034 ± 0.13
T1W	-0.047 ± 0.05
T1K	-0.122 ± 0.054
T1C	-0.063 ± 0.033
T1N	-0.04 ± 0.064
T1P	-0.458 ± 0.16
T1H	-0.361 ± 0.15
T1Q	-0.033 ± 0.065
T1Y	-0.074 ± 0.046
T1S	-0.047 ± 0.027
T1R	-0.199 ± 0.026
T1A	-0.064 ± 0.044
T1M	-0.041 ± 0.043
T1I	-0.006 ± 0.041
